From article doi:10.1101/384248

Target: p53 (human (endogenous in HCT 116, MCF7, U2OS)), P04637
Experiment: co-IP
Details: remark: other sources report otherwise

Chain of p53 (human (endogenous in HCT 116, MCF7, U2OS)), P04637 (P04637 whole entry): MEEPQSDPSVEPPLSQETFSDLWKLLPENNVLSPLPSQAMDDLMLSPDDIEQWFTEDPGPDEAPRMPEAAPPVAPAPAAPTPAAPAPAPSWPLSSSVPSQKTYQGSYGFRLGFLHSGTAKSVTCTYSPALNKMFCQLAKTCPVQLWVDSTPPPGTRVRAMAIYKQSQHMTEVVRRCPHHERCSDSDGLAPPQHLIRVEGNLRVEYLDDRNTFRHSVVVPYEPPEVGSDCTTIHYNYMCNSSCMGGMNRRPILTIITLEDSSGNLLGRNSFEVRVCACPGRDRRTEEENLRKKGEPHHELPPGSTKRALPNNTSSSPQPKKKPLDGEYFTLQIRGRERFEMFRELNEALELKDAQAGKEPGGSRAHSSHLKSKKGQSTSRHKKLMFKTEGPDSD

percent decrease of MDMX bound to p53 in cells treated with RITA: 43%
B1: MDMX, O15151 1-490 (natural protein)
chain: MTSFSTSAQCSTSDSACRISPGQINQVRPKLPLLKILHAAGAQGEMFTVKEVMHYLGQYIMVKQLYDQQEQHMVYCGGDLLGELLGRQSFSVKDPSPLYDMLRKNLVTLATATTDAAQTLALAQDHSMDIPSQDQLKQSAEESSTSRKRTTEDDIPTLPTSEHKCIHSREDEDLIENLAQDETSRLDLGFEEWDVAGLPWWFLGNLRSNYTPRSNGSTDLQTNQDVGTAIVSDTTDDLWFLNESVSEQLGVGIKVEAADTEQTSEEVGKVSDKKVIEVGKNDDLEDSKSLSDDTDVEVTSEDEWQCTECKKFNSPSKRYCFRCWALRKDWYSDCSKLTHSLSTSDITAIPEKENEGNDVPDCRRTISAPVVRPKDAYIKKENSKLFDPCNSVEFLDLAHSSESQETISSMGEQLDNLSEQRTDTENMEDCQNLLKPCSLCEKRPRDGNIIHGRTGHLVTCFHCARRLKKAGASCPICKKEIQLVIKVFIA
